Laboratory results from EP4631959A2, “NOVEL MINIGASTRIN-DERIVED CHOLECYSTOKININ 2 RECEPTOR BINDING MOLECULES FOR IMAGING AND TARGETED RADIOTHERAPY” (priority 2022, dated 2024).
Starred links: 1 amine or outer side, 2 acyl side, 3 side chain; linkers in the order of their positions; H or OH if unused. Non-standard residues stand in square brackets, D forms with d. Residues, ends and D or L forms follow the SMILES beside them. *: point of attachment. Benzoyl(4-SiFtBu2) = CC(C)(C)[Si](F)(c1ccc(C(=O)*)cc1)C(C)(C)C; DOTA = O=C(O)CN1CCN(CC(=O)O)CCN(CC(=O)*)CCN(CC(=O)O)CC1; PEG12 = NCCOCCOCCOCCOCCOCCOCCOCCOCCOCCOCCOCCOCCC(=O)O; d(γGlu) = O=C(O)[C@@H](CCC(=O)[*:2])N[*:1]; PEG8 = NCCOCCOCCOCCOCCOCCOCCOCCOCCC(=O)O; 1Nal = N[C@@H](Cc1cccc2ccccc12)C(=O)O; NMeNle = CCCC[C@H](NC)C(=O)O; PEG4 = NCCOCCOCCOCCOCCC(=O)O; dDap = NC[C@@H](N)C(=O)O

Tests used:
CCK-2R = molecular target: T1, CCK-2R (Rattus norvegicus, UniProt P30553); assay: Determination of IC50: CCK-2R affinity on AR4-2J cells, competition with [^177Lu]Lu-DOTA-PP-F11N; format: binding; conditions: AR4-2J cells; ^natLu-labeled; read-out: IC50 [nM] (n = 3), ^natLu-labeled
T1 construct: The CCK-2R expressing rat pancreatic tumor cells AR4-2J; host or cells: AR4-2J rat pancreatic tumor cells
T1 sequence (P30553 1-452): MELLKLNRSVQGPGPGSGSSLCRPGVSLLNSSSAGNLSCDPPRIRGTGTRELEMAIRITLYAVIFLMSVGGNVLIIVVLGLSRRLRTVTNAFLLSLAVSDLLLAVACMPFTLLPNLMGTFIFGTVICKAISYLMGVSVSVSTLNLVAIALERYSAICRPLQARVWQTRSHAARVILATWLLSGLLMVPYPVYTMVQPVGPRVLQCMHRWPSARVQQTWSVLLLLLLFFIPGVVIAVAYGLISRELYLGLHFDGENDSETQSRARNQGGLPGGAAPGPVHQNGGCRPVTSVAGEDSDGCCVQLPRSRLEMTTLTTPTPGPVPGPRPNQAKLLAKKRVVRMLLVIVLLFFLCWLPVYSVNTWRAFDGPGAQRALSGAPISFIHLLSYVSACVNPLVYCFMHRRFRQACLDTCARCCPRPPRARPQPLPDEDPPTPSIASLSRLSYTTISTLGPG
Procedure, shortened: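 Competitive displacement of 0.3 pmol/well [177Lu]Lu-DOTA-PP-F11N by compounds (10^-10 to 10^-4 M) on AR4-2J cells in BSA-supplemented medium, 3 h at 37 °C. Free label was collected from medium plus PBS rinse, and cell-bound label was recovered with 1 M NaOH, both measured by γ-counter. Each IC50 was determined twice, in triplicate.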

[1] = molecular target: T2, Human serum albumin (HSA) (Homo sapiens, UniProt P02768); assay: Determination of HSA binding on a Chiralpak HSA column; format: in vitro ADME; conditions: Tab. 8; metal not stated (Fig. 18: ^natLu)
T2 construct: purchased Daicel, Tokyo, Japan H13H-2433
Protocol: Human serum albumin (HSA) binding of the CCK-2R-targeted compounds was determined as reported by Valko et al., using a Chiralpak HSA column (50 x 3 mm, 5 µm, H13H-2433, Daicel, Tokyo, Japan) at a constant flow rate of 0.5 mL/min at rt. Therefore, an aq. solution of NH4OAc (pH = 6.9, 50 mM) as mobile phase A and isopropanol as mobile phase B were freshly prepared. In order to calibrate the column prior to the experiments, the retention times of nine reference substances with a HSA binding in the range of 13 to 99% were determined using a gradient of 100% A (0 to 3 min), followed by 80% A (3 to 40 min). Furthermore, all substances tested, were dissolved in a mixture (1/1, v/v) of A and B reaching a final concentration of 0.5 mg/mL. The HSA binding of all rhCCK ligands tested, was determined using the same gradient as for the calibration probes. The non-linear regression of the calibration experiments and the CCK-2R ligands (Fig. 29) was established using the OriginPro 2016G software (Northampton, United States).

[2] = n-Octanol-PBS distribution coefficient (logD7.4); format: physicochemical; conditions: pH = 7.4, ^177Lu-labeled
Protocol: Approximately 1 MBq of the labeled tracer was dissolved in 1 mL of a 1/1 mixture (v/v) of phosphate buffered saline (PBS, pH = 7.4) and n-octanol in an Eppendorf tube (1.5 mL). After vigorous mixing of the suspension for 3 min at rt, the vial was centrifuged at 9,000 rpm for 5 min (Biofuge 15, Heraeus Sepatech, Osterode, Germany) and 200 µL aliquots of both layers were measured in a γ-counter. The experiment was repeated at least five times.

T2 sequence (P02768 25-609): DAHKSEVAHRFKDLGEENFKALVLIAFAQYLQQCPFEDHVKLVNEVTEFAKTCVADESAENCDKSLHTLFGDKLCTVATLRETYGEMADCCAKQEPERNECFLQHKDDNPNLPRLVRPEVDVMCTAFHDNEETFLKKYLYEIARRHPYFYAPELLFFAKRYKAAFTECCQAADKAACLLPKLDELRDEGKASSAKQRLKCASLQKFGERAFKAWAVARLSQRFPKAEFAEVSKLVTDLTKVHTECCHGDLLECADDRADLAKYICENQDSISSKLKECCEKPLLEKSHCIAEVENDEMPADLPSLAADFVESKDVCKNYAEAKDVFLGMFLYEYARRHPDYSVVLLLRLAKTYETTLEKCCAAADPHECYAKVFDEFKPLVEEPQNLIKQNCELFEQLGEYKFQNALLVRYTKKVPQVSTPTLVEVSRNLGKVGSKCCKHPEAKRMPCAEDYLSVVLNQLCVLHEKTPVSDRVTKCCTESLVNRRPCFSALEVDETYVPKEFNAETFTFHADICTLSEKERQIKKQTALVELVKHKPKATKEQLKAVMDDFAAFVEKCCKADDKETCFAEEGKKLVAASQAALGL

## CCCC[C@@H](C(=O)N[C@@H](CC(=O)O)C(=O)N[C@@H](Cc1cccc2ccccc12)C(N)=O)N(C)C(=O)[C@H](Cc1c[nH]c2ccccc12)NC(=O)CCOCCOCCOCCOCCNC(=O)CC[C@@H](NC(=O)CCOCCOCCOCCOCCOCCOCCOCCOCCNC(=O)[C@@H](CNC(=O)c1ccc([Si](F)(C(C)(C)C)C(C)(C)C)cc1)NC(=O)CN1CCN(CC(=O)O)CCN(CC(=O)O)CCN(CC(=O)O)CC1)C(=O)O [DOTA-rhCCK-73, DOTA-dap(SiFA)-(PEG)7-γ-glu-(PEG)3-Trp-(N-Me)Nle-Asp-1-Nal-NH2] ({DOTA}-[dDap](Benzoyl(4-SiFtBu2))[PEG8][d(γGlu)][PEG4]W[NMeNle]D[1Nal]-NH2)
CCK-2R
  IC50: 15.6 ± 0.7 nM
[1]
  HSA binding [%]: 90.4%
[2]
  logD7.4 (n ≥ 5), ^177Lu-labeled: −1.02 ± 0.06

## CCCC[C@@H](C(=O)N[C@@H](CC(=O)O)C(=O)N[C@@H](Cc1cccc2ccccc12)C(N)=O)N(C)C(=O)[C@H](Cc1c[nH]c2ccccc12)NC(=O)CCOCCOCCOCCOCCNC(=O)CC[C@@H](NC(=O)CCOCCOCCOCCOCCOCCOCCOCCOCCOCCOCCOCCOCCNC(=O)[C@@H](CNC(=O)c1ccc([Si](F)(C(C)(C)C)C(C)(C)C)cc1)NC(=O)CN1CCN(CC(=O)O)CCN(CC(=O)O)CCN(CC(=O)O)CC1)C(=O)O [DOTA-rhCCK-74, DOTA-dap(SiFA)-(PEG)11-γ-glu-(PEG)3-Trp-(N-Me)Nle-Asp-1-Nal-NH2] ({DOTA}-[dDap](Benzoyl(4-SiFtBu2))[PEG12][d(γGlu)][PEG4]W[NMeNle]D[1Nal]-NH2)
CCK-2R
  IC50: 12.1 ± 1 nM
[1]
  HSA binding [%]: 87.2%
[2]
  logD7.4 (n ≥ 5), ^177Lu-labeled: −1.19 ± 0.07

## CCCC[C@@H](C(=O)N[C@@H](CC(=O)O)C(=O)N[C@@H](Cc1cccc2ccccc12)C(N)=O)N(C)C(=O)[C@H](Cc1c[nH]c2ccccc12)NC(=O)CCOCCOCCOCCOCCNC(=O)CC[C@@H](NC(=O)CCOCCOCCOCCOCCOCCOCCOCCOCCOCCOCCOCCOCCNC(=O)CC[C@@H](NC(=O)[C@@H](CNC(=O)C[N+](C)(C)Cc1ccc([Si](F)(C(C)(C)C)C(C)(C)C)cc1)NC(=O)CN1CCN(CC(=O)O)CCN(CC(=O)O)CCN(CC(=O)O)CC1)C(=O)O)C(=O)O [DOTA-rhCCK-75, DOTA-dap(SiFAlin)-γ-glu-(PEG)11-γ-glu-(PEG)3-Trp-(N-Me)Nle-Asp-1-Nal-NH2]
CCK-2R
  IC50: 19.2 ± 1.6 nM
[1]
  HSA binding [%]: 90.9%
[2]
  logD7.4 (n ≥ 5), ^177Lu-labeled: −1.15 ± 0.05
[2]; listed as [^nat/177Lu]Lu-DOTA-rhCCK-75
  logD7.4 (n ≥ 5), ^177Lu-labeled: -1.15 ± 0.05

## CCCC[C@@H](C(=O)N[C@@H](CC(=O)O)C(=O)N[C@@H](Cc1cccc2ccccc12)C(N)=O)N(C)C(=O)[C@H](Cc1c[nH]c2ccccc12)NC(=O)CCOCCOCCOCCOCCNC(=O)CC[C@@H](NC(=O)CCOCCOCCOCCOCCOCCOCCOCCOCCOCCOCCOCCOCCNC(=O)CC[C@@H](NC(=O)[C@@H](CNC(=O)c1ccc([Si](F)(C(C)(C)C)C(C)(C)C)cc1)NC(=O)CN1CCN(CC(=O)O)CCN(CC(=O)O)CCN(CC(=O)O)CC1)C(=O)O)C(=O)O [DOTA-rhCCK-76, DOTA-dap(SiFA)-γ-glu-(PEG)11-γ-glu-(PEG)3-Trp-(N-Me)Nle-Asp-1-Nal-NH2]
CCK-2R
  IC50: 14.2 ± 0.9 nM
[1]
  HSA binding [%]: 86.2%
[2]
  logD7.4 (n ≥ 5), ^177Lu-labeled: −1.82 ± 0.09
[2]; listed as [^nat/177Lu]Lu-DOTA-rhCCK-76
  logD7.4 (n ≥ 5), ^177Lu-labeled: -1.82 ± 0.09
